Test results from patent US20140186371A1 (published 2014).

B1: mouse monoclonal antibody 5D2 (antibody, V domains shown)
VH: EVQLQQSGPELVKPGASVKISCKASGYTFTDNYYMNWVKQSHGKSLEWIGHIYPNNGVTSYNQKFRGKATLTVDKSSNSAYMELRSLTSEDSALYYCARNKLLSLYWYFDVWGTGTSVTVSS
VL: DIQMTQSSSSFSVFLGDRITITCRASVDIYNRLAWFQQKPGNAPRLLISGATSLATGVPSRFSGSGSGKDYTLSITSLQTEDVTIYYCQQYWSTPWTFGGGTKLEIKR
B2: mouse monoclonal antibody 6G1 (antibody, V domains shown)
VH: QIQLVQSGPELKKPGETVKISCKASGYTFTNYGMNWVKQAPGKDLKWMGWINTYTGEPRYADEFKGRFAFSLETSASTAYLQINNLKNEDMATYFCAKGGYPHYYSMDYWGQGTSVTVSS
VL: DIQMTQSTSSLSASLGDRVTISCRASQDINNYLNWYQQKPDGTIKLLIYYTSKLHSGVPSRFSGSGSGRDYSLTISNLEQEDIATYFCQQGNTLPRTFGGGTKLEIKR

How the values were obtained:
human iC3b [1] = target: T1, human iC3b (human, UniProt P01024 23-667; P01024 749-1303; P01024 1321-1663); assay: sandwich ELISA: chicken anti-C3 capture antibody on the plate, iC3b captured, A209 as detecting antibody, goat anti-mouse-HRP, ABTS
T1 construct: Bought purified protein; three chains held together by disulfide bonds; also called purified human iC3b (Complement Technology #A115)
T1 sequence (P01024 23-667 limits assumed, chain 1 of 3): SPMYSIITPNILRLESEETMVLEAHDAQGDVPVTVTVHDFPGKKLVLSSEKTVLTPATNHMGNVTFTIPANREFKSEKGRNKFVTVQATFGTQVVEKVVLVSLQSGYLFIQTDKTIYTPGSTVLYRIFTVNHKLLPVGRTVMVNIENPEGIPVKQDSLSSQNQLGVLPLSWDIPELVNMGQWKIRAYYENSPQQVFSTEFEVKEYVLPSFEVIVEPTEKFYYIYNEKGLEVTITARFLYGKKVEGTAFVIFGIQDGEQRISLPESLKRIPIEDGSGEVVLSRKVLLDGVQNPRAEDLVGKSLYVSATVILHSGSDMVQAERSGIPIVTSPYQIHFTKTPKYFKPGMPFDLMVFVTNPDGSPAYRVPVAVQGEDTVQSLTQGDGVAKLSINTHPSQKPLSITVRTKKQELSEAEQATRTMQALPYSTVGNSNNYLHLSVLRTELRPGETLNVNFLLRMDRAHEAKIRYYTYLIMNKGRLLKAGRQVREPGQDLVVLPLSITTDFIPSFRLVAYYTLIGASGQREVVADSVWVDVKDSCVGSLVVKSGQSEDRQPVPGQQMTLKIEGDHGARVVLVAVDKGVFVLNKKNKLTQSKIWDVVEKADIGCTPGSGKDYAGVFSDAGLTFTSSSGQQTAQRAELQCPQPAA
T1 sequence (P01024 749-1303 limits assumed, chain 2 of 3): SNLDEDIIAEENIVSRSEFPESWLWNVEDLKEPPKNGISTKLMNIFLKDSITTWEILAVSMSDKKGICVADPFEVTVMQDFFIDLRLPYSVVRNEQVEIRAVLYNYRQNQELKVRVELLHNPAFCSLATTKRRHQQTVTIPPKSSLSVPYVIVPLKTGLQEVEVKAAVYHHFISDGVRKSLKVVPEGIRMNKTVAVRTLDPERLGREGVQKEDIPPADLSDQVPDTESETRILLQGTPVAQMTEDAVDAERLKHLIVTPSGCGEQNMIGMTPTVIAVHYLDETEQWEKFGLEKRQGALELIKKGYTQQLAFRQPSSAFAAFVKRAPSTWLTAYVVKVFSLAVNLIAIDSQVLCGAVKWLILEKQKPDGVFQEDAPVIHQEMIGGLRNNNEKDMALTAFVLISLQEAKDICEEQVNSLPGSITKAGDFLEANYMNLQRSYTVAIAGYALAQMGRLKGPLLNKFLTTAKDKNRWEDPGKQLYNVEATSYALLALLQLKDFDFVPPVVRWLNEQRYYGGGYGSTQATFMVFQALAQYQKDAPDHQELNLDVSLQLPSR
T1 sequence (P01024 1321-1663 limits assumed, chain 3 of 3): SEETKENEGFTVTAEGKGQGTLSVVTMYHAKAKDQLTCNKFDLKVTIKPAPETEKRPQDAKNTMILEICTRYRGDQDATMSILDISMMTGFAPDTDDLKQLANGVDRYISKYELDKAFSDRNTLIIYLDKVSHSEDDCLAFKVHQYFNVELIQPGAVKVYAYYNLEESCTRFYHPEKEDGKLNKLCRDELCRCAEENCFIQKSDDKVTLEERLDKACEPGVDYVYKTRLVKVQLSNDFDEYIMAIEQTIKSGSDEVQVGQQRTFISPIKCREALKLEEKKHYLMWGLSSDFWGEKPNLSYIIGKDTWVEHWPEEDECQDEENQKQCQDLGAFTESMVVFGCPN

human iC3b [2] = target: T1, human iC3b; assay: Biacore (SPR); reference C3b
human iC3b [3] = target: T1, human iC3b; assay: sandwich ELISA; reference C3b
human iC3b [4] = target: T1, human iC3b; assay: sandwich ELISA, antigen captured by chicken anti-C3 antibody
human iC3b [5] = target: T1, human iC3b; assay: Biacore, antibody captured on anti-mouse CM5 chip
human C3 = target: T2, human C3 (human, UniProt P01024 23-667; P01024 672-1663); assay: Biacore, antibody captured on anti-mouse CM5 chip, antigen in solution
T2 construct: Bought purified protein; also called C3 (Complement Technology #A113)
T2 sequence (P01024 23-667, chain 1 of 2): as the sequence (P01024 23-667 limits assumed, chain 1 of 3) above
T2 sequence (P01024 672-1663, chain 2 of 2): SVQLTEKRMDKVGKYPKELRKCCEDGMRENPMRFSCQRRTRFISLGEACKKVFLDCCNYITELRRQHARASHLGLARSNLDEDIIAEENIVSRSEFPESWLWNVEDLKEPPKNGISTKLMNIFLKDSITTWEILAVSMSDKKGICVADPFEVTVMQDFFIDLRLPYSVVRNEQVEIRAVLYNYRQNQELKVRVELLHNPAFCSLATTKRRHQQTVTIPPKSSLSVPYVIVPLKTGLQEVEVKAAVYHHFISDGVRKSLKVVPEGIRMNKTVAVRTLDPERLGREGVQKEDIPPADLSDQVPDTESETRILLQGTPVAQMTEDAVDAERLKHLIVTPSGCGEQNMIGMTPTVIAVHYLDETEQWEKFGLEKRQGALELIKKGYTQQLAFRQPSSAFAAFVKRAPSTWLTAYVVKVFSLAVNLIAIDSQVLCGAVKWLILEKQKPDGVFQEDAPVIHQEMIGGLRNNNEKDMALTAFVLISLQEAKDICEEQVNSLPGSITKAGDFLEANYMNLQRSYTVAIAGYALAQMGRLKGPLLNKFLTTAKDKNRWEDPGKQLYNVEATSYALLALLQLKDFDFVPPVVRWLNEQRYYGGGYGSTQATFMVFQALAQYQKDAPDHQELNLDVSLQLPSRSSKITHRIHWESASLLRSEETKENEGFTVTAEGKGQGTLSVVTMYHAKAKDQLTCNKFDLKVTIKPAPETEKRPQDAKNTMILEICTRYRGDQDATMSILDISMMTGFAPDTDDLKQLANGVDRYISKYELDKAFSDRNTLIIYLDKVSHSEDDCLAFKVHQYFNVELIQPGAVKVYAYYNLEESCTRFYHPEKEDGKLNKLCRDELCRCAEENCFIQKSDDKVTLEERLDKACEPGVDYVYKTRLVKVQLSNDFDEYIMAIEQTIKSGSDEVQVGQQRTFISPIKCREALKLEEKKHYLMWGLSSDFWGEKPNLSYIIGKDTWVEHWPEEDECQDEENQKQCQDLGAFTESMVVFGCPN

human iC3b [6] = target: T1, human iC3b; assay: as above

| Molecule | EC50 (read off the curve) (human iC3b [1]) [µg/mL] | fold higher affinity constant for iC3b than C3b (human iC3b [2]) [fold] | fold higher affinity constant for iC3b than C3b (human iC3b [3]) [fold] | fold specificity for iC3b vs. C3 or C3b (human iC3b [4]) [fold] | fold difference in KD, iC3b relative to C3 (human iC3b [5]) [fold] | Kd (human C3) [nM] | Kd (human iC3b [6]) [nM] |
| --- | --- | --- | --- | --- | --- | --- | --- |
| A209 antibody (Quidel) | 0.03 |  |  |  |  |  |  |
| B1 |  | ≥ 10 | ≥ 2 | > 2 |  |  |  |
| B2 |  | ≥ 10 | ≥ 2 | > 2 | > 10 | 2100 | 43.3 |
